Measurements: paper PMC7467640

Columns and labels:
[1] = molecular target: His224 (UniProt position 224, …); test: potentiometry; details: 298 K; 0.1 M (NaClO4); none (4 mM HClO4, titrated with carbonate-free NaOH); metal-free peptide, 0.5 mM, argon atmosphere
[2] = molecular target: His239 (UniProt position 239, …); test: potentiometry; details: 298 K; 0.1 M (NaClO4); none (4 mM HClO4, titrated with carbonate-free NaOH); metal-free peptide, 0.5 mM, argon atmosphere

B1: ZnuA fragment 223-240 (secondary metal binding site peptide), Ac-GHFTVNPEIQPGAQRLHE-NH2 (Escherichia coli) (peptide)
chain: GHFTVNPEIQPGAQRLHE
Q: Which pKa [1] does the source give for B1 here?
A: 6.76

Q: What about the pKa [2] of the same protein?
A: 6.16
